Non-standard residues stand in square brackets, D forms with d. No end group written: not given here. Cit = NC(=O)NCCC[C@H](N)C(=O)O
Key:
[1] = target: PREDICTED: similar to 60S ribosomal protein L29 (Cell surface heparin-binding protein HIP) [Homo sapiens] (Homo sapiens); assay: IP from huPAD4 deiminated HEK293 lysate, nLC LTQ FTMS, emPAI; against RhmAb2.101
Experimental: Beads were subjected to three washes with 1 ml IPP500, one wash with 1 ml IPP150 (10 mM Tris/HC1 pH 8.0, 150 mM NaCl, 0.1% NP40 and 0.1% TWEEN®-20), and subsequently incubated at room temperature with 300 μl deiminated HEK293 lysate for two hours under constant rotation. Beads were washed three times with 1 ml of IPP150 after which a small part has been used for SDS-PAGE electrophoresis to determine if the IP procedure with the HEK293 cells was successful.
To remove PEGs from the immunoprecipitated proteins, they were loaded on a 15% SDS-PAGE gel and run shortly. […] Samples were diluted 50 fold before subjecting them to nLC LTQ FTMS ULTRA analysis.

[2] = target: T1, Histone 2A citrulline-containing peptide 9 (human, also: biotin label); assay: peptide ELISA, 0.000128 ug/well
T1 peptide: DNKKT[Cit]IIPRHL
Experimental: (§1) Biotin and citrulline-containing peptides derived from histone 2A were immobilized on NEUTRAVIDIN®-coated 96-well ELISA plates (0.3 μg/well). CFC-1 and CFC-0 were coated at the same concentration and served as positive and negative controls respectively for specific anti-citrulline reactivity and as coating controls. Non-coated wells were used to test for aspecific binding of the antibodies. […] Detection of bound anti-citrulline antibodies was performed by incubating the wells with rabbit-anti-human-HRP (1:2000) for one hour at RT followed by incubation with TMB substrate. The resulting OD (y-axis) is a measure for antibody binding.
(§2) Ninety-six-well ELISA plates were coated with NEUTRAVIDIN® (0.1 μg/well) by overnight incubation at 4° C. Wells were washed five times with PBS-TWEEN®-20 (PBS-T) and blocked by a one-hour incubation with PBS-T+1% Bovine serum albumin (BSA) at room temperature (RT). After five more washes with PBS-T, wells were incubated for one hour at RT with histone-derived citrulline and biotin-containing peptides (0.3 μg/well). […] Wells were washed five times with PBS-T and incubated with rabbit-anti-human-HRP (1:2000) for one hour at RT followed by five washes with PBS-T and three wash steps with PBS. Wells were incubated for five minutes with TMB substrate before stopping the reaction with 2 M H₂SO₄. Optical density was measured by 450 nm and is a measure for the affinity of the antibodies used.

[3] = target: T2, Histone 2A citrulline-containing peptide 11 (human, also: biotin label); assay: peptide ELISA, 0.000128 ug/well
T2 peptide: LQLAI[Cit]NDEELN
Experimental: as §1, §2

[4] = target: T3, Histone 2A citrulline-containing peptide 10 (human, also: biotin label); assay: peptide ELISA, 0.000128 ug/well
T3 peptide: TRIIP[Cit]HLQLAI
Experimental: as §1, §2

[5] = target: T4, Histone 2A citrulline-containing peptide 3 (human, also: biotin label); assay: peptide ELISA, 0.000128 ug/well
T4 peptide: KSRSS[Cit]AGLQFP
Experimental: as §1, §2

[6] = target: T5, Histone 2A citrulline-containing peptide 2 (human, also: biotin label); assay: peptide ELISA, 0.000128 ug/well
T5 peptide: AKAKS[Cit]SSRAGL
Experimental: as §1, §2

[7] = target: T6, Histone 2A citrulline-containing peptide 5 (human, also: biotin label); assay: peptide ELISA, 0.000128 ug/well
T6 peptide: VGRVH[Cit]LLRKGN
Experimental: as §1, §2

[8] = target: T7, Histone 2A citrulline-containing peptide 8 (human, also: biotin label); assay: peptide ELISA, 0.000128 ug/well
T7 peptide: AGNAA[Cit]DNKKTR
Experimental: as §1, §2

[9] = target: T8, Histone 2A citrulline-containing peptide 6 (human, also: biotin label); assay: peptide ELISA, 0.000128 ug/well
T8 peptide: VHRLL[Cit]KGNYSE
Experimental: as §1, §2

msVim XS/XL = target: T9, msVim XS/XL (mouse, also: biotin label); assay: peptide ELISA, 10 ug/well
T9 construct: also called mouse vimentin peptide
T9 peptide: YVT[Cit]SSAV[Cit]L[Cit]SSVP
Experimental: as §1, with “fibrinogen and vimentin” for “histone 2A”
(§3) Biotin-labeled and citrulline-containing fibrinogen and vimentin peptides (Table 5) were also tested for reactivity with the therapeutic antibodies. Peptides were coated on 96-well NEUTRAVIDIN®-ELISA plates.

msFibβ XG = target: T10, msFibβ XG (mouse, also: biotin label); assay: peptide ELISA, 10 ug/well
T10 peptide: EPTDSLDA[Cit]GHRPVDRR
Experimental: as §1, with “fibrinogen and vimentin” for “histone 2A”
as §3

msFibα XH = target: T11, msFibα XH (mouse, X at position 15 is citrulline; biotin label); assay: peptide ELISA, 10 ug/well
T11 peptide: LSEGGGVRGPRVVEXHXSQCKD
Experimental: as §1, with “fibrinogen and vimentin” for “histone 2A”
as §3

huFibα XG = target: T12, huFibα XG (human, X at position 8 is citrulline; biotin label); assay: peptide ELISA, 10 ug/well
T12 peptide: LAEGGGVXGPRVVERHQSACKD
Experimental: as §1, with “fibrinogen and vimentin” for “histone 2A”
as §3

CFC-1 = target: T13, CFC-1; assay: peptide ELISA, 10 ug/well
T13 construct: Positive control for anti-citrulline reactivity; also called cfc1 XG
Experimental: as §1, with “fibrinogen and vimentin” for “histone 2A”
as §3

huFibα XH = target: T14, huFibα XH (human, X at position 15 is citrulline; biotin label); assay: peptide ELISA, 10 ug/well
T14 peptide: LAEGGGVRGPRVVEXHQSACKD
Experimental: as §1, with “fibrinogen and vimentin” for “histone 2A”
as §3

msFibα XG = target: T15, msFibα XG (mouse, X at position 8 is citrulline; biotin label); assay: peptide ELISA, 10 ug/well
T15 peptide: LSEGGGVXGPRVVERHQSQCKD
Experimental: as §1, with “fibrinogen and vimentin” for “histone 2A”
as §3

[10] = target: T16, huPAD4 deiminated human recombinant histone H2A (human); assay: ELISA, 0.08 ug/well
T16 construct: also called H2A/p4; huPAD4 deiminated histone 2A
Experimental: (§4) CFC-1 and CFC-0 were coated at the same concentration and served as positive and negative controls, respectively, for specific anti-citrulline reactivity and as coating controls. Non-coated wells were used to test for aspecific binding of the antibodies. […] Detection of bound anti-citrulline antibodies was performed by incubating the wells with rabbit-anti-human-HRP (1:2000) for one hour at RT followed by incubation with TMB substrate. The resulting OD (y-axis) is a measure for antibody binding. H1=recombinant histone 1; H1/p2=huPAD2 recombinant histone 1; H1/p4=huPAD4 recombinant histone 1 and so forth (x-axis).

[11] = target: T17, huPAD2 deiminated human recombinant histone H2B (human); assay: ELISA, 0.08 ug/well
T17 construct: also called H2B/p2
Experimental: as §4

[12] = target: T18, huPAD4 deiminated human recombinant histone H2B (human); assay: ELISA, 0.08 ug/well
T18 construct: also called H2B/p4
Experimental: as §4

[13] = target: human recombinant histone H4 (human, UniProt P62805 2-103); assay: ELISA, 0.08 ug/well
Experimental: as §4

[14] = target: T19, human recombinant histone H2B (human); assay: ELISA, 0.08 ug/well
T19 construct: Non-deiminated
Experimental: as §4

[15] = target: T20, huPAD4 deiminated human recombinant histone H3 (human); assay: ELISA, 0.08 ug/well
T20 construct: also called H3/p4
Experimental: as §4

B1: RhmAb2.102 (antibody, human IgG1, lambda)
heavy: not shown
light: QSVLTQPPSMSAAPGQKVTISCSGSSSNIGNNYVSWYQQVPGTAPKLLIYDDNKRPSGIPGRFSGSKSATSATLGITGLQAGDEADYYCGSWDDNLSVVLFGGGTKLTVLGQPKAAPSVTLFPPSSEELQANKATLVCLISDFYPGAVTVAWKADSSPVKAGVETTTPSKQSNNKYAASSYLSLTPEQWKSHRSYSCQVTHEGSTVEKTVAPTECS
notes: Human IgG1 lambda; also called Rhm2.102
For B1, the “Ratio 102/101” value [1] was 1, the OD [2] was 0.055 OD and the OD [3] was 0.059 OD. It also gave an OD [4] of 0.057 OD, an OD [5] of 0.063 OD and an OD [6] of 0.075 OD. For the same binder, the OD [7] was 0.059 OD, the OD [8] was 0.055 OD and the OD [9] was 0.054 OD. For the same binder, the OD (msVim XS/XL) was 3.69 OD, the OD (msFibβ XG) was 3.8 OD and the OD (msFibα XH) was 0.154 OD. It also gave an OD (huFibα XG) of 2.73 OD, an OD (CFC-1) of 3.89 OD and an OD (huFibα XH) of 0.179 OD. The OD (msFibα XG) was 3.03 OD, the OD [10] was 1.75 OD and the OD [11] was 0.053 OD. For the same binder, the OD [12] was 0.052 OD, the OD [13] was 0.067 OD and the OD [14] was 0.054 OD. The OD [15] was 0.093 OD.
